Results: patent publication US20220411487A1 (Regeneron, published 2022)

T1: full length human TMPRSS6 on HEK293 cells (HEK293/hTMPRSS6) (human, UniProt Q8IU80 10-811)
T1 sequence (looked up): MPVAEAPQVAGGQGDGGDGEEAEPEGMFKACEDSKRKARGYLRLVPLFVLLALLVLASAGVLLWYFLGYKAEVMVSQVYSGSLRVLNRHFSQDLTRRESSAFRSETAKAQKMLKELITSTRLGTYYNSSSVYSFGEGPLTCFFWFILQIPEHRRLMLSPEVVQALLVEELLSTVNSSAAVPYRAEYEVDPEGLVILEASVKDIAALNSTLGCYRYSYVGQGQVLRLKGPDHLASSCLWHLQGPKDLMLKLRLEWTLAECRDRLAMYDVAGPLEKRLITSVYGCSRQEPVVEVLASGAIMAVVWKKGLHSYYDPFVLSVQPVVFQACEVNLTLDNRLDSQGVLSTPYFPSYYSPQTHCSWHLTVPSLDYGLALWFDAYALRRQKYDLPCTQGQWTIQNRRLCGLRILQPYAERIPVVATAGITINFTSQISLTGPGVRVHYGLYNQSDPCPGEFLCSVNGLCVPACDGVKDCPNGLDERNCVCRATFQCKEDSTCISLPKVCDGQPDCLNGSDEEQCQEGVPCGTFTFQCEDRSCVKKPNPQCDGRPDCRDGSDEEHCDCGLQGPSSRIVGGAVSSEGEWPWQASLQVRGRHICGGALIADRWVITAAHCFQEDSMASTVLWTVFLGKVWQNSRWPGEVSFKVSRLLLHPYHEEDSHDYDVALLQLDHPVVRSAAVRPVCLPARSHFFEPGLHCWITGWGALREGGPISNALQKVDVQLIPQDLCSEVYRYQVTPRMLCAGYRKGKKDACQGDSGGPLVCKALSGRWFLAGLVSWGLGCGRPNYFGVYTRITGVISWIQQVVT

T2: mfTMPRSS6_S751A-MMH (Macaca fascicularis, UniProt Q8IU80 77-811 (human entry))
T2 construct: also called REGN5977; Macaca fascicularis TMPRSS6 extracellular domain with a S751A mutation and a C-terminal myc-myc-hexahistidine tag
T2 chain: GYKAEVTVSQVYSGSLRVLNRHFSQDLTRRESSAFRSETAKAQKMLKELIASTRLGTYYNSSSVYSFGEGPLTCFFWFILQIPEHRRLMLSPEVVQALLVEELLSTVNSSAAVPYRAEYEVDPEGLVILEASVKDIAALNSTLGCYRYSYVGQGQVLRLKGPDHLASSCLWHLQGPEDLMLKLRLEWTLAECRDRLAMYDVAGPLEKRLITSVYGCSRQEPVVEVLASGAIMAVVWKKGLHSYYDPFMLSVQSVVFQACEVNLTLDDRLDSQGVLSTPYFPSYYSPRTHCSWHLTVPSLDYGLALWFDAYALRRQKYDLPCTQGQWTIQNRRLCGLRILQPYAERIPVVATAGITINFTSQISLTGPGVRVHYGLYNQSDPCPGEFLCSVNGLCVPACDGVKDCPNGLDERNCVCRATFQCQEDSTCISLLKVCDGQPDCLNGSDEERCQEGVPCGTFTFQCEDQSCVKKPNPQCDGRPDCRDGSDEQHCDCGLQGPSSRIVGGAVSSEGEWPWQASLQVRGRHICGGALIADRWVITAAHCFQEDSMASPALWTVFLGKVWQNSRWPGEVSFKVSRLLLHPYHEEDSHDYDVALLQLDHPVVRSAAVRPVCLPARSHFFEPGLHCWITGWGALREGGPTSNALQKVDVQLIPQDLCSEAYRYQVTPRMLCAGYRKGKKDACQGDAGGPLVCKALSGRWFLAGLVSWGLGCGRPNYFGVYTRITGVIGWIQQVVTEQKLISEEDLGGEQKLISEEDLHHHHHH


Tests used:
[1] = molecular target: T1, full length human TMPRSS6 on HEK293 …; assay: cell-based or functional assay
hTMPRSS6_S762A-MMH = molecular target: T3, hTMPRSS6_S762A-MMH (human, UniProt Q8IU80 77-811); assay: SPR, mAb captured via anti-hFc, 37 C
T3 construct: also called REGN5330; human TMPRSS6_S762A-MMH
Experimental: (§1) The equilibrium dissociation constant (KD) for TMPRSS6 binding to different TMPRSS6 monoclonal antibodies (mAbs) was determined using a real-time surface plasmon resonance biosensor using a Biacore 4000 instrument. All binding studies were performed in 10 mM HEPES, 150 mM NaCl, 3 mM EDTA, and 0.05% v/v Surfactant Tween-20, pH 7.4 (HBS-ET) running buffer at 25° C. and 37° C. The Biacore CM5 sensor chip surface was first derivatized by amine coupling with a human Fc specific mouse mAb to capture different TMPRSS6 mAbs. […] Different concentrations (100 nM to 3.7 nM, 3-fold serial dilution) of the TMPRSS6 reagent proteins prepared in HBS-EP running buffer were injected over the TMPRSS6 mAb captured surface for 150 seconds at a flow rate of 30 μL/min and their dissociation in HBS-ET running buffer was monitored for 10 minutes. At the end of each cycle, the TMPRSS6 mAb captured surface was regenerated using a 12 second injection of 20 mM phosphoric acid.
(§2) The association rate (kₐ) and dissociation rate (kd) were determined by fitting the real-time binding sensorgrams to a 1:1 binding model with mass transport limitation using Scrubber 2.0 (BioLogic Software) curve-fitting software. Binding dissociation equilibrium constant (KD) and dissociative half-life (t½) were calculated from the kinetic rates as: […]

mfTMPRSS6_S751A-MMH = molecular target: T2, mfTMPRSS6_S751A-MMH; assay: SPR, mAb captured via anti-hFc, 37 C
Experimental: as §1, §2

| Binder | % inhibition, HEK293 bioassay, overnight pre-incubation 37 C [1] [%] | IC50, HEK293 bioassay, overnight pre-incubation 37 C [1] [nM] | 100 nM Ag Bound (hTMPRSS6_S762A-MMH) [RU] | Kd (hTMPRSS6_S762A-MMH) [nM] | koff (hTMPRSS6_S762A-MMH) [s⁻¹] | kon (hTMPRSS6_S762A-MMH) [M⁻¹ s⁻¹] | t½ (hTMPRSS6_S762A-MMH) [min] | 100 nM Ag Bound (mfTMPRSS6_S751A-MMH) [RU] | Kd (mfTMPRSS6_S751A-MMH) [nM] | koff (mfTMPRSS6_S751A-MMH) [s⁻¹] | kon (mfTMPRSS6_S751A-MMH) [M⁻¹ s⁻¹] | t½ (mfTMPRSS6_S751A-MMH) [min] |
| --- | --- | --- | --- | --- | --- | --- | --- | --- | --- | --- | --- | --- |
| REGN7974 (antibody, human IgG4 S228P, kappa, V domains shown, fully human; human IgG4 Fc with hinge S108P; also called mAb41422) VH: EVQLVESGGGLVQPGRSLRLSCIASGFNFGDYGMSWVRQAPGKGLEWVGFIRSKAYGGTTEYAASVKGRFTISRDDSKSIAYLQMNSLKTEDAAMYYCSRDYYDILTGYYGDYWGQGTLVTVSS VL: not shown | 86 | 2.6 | 206 | 21.2 | 0.00235 | 111000 | 4.9 | 183 | 16.1 | 0.00405 | 251000 | 2.9 |
| REGN7969 (antibody, human IgG4 S228P, kappa, V domains shown, fully human; human IgG4 Fc with hinge S108P; also called mAb37746) VH: QVQLVESGGGVVQPGRSLRLSCAASGFTFNNYGMHWVRQAPGKGLEWVAIISYDGSNEYYSDSVKGRFTISRDNSKNTLYLQMNSLRAEDTAVYYCARDQDYGGNLFHYWGQGTLVTVSS VL: not shown | 88 | 1.2 | 110 | 4.4 | 0.000975 | 222000 | 12 | 105 | 3.27 | 0.000924 | 283000 | 12 |
| REGN7999 (antibody, human IgG4 S228P, kappa, V domains shown, fully human; human IgG4 Fc with hinge S108P; also called mAb41450) VH: EVQLVESGGGLVQPGGSLRLSCAASGFTFSSYAMTWVRQAPGKGLEWVSAISGSDTSTYYADSVKGRFTISRDNSKNTLFLQMNSLRAEDTAVYYCAKHQDYDFSYYYSAMDVWGQGTTVTVSS VL: DIQMTQSPSSLSASVGDRVIITCRASQDFNSWLAWYQQKPGKAPKLLIYAASSLQSGVPSRFSGSGSGTDFTLTISSLQPEDFATYYCQQTDSFPFTFGPGTKVDIKR | 89 | 2.1 | 129 | 2.3 | 0.000354 | 154000 | 33 | 143 | 0.75 | 0.000306 | 408000 | 38 |

Further lines, results first:

| % inhibition, HEK293 bioassay, overnight pre-incubation 37 C [1] [%] | IC50, HEK293 bioassay, overnight pre-incubation 37 C [1] [nM] | 100 nM Ag Bound (hTMPRSS6_S762A-MMH) [RU] | Kd (hTMPRSS6_S762A-MMH) [nM] | koff (hTMPRSS6_S762A-MMH) [s⁻¹] | kon (hTMPRSS6_S762A-MMH) [M⁻¹ s⁻¹] | t½ (hTMPRSS6_S762A-MMH) [min] | 100 nM Ag Bound (mfTMPRSS6_S751A-MMH) [RU] | Kd (mfTMPRSS6_S751A-MMH) [nM] | koff (mfTMPRSS6_S751A-MMH) [s⁻¹] | kon (mfTMPRSS6_S751A-MMH) [M⁻¹ s⁻¹] | t½ (mfTMPRSS6_S751A-MMH) [min] | Binder |
| --- | --- | --- | --- | --- | --- | --- | --- | --- | --- | --- | --- | --- |
| 87 | 1.7 | 134 | 11 | 0.00124 | 113000 | 9 | 133 | 11.9 | 0.00247 | 207000 | 4.7 | REGN7977 (antibody, V domains shown, fully human; human IgG4 Fc with hinge S108P; also called mAb41465) VH: EVQLVESGGGLVKPGGSLRVSCAASGVTFSNVWMSWVRQVPGKGLEWVGRIKSKTDGGTTDYAAPVKGRFTISKDDSKNTLFLQMNSLKTEDTAVYYCTTETGDFWSGYYPRFQHWGQGTLVTVSS VL: DIQMTQSPSSLSASVGDRVTITCRASQYISTYLNWYQQKPGKAPSLLIYAASSLQSGVPSRFSGSGSGTDFTLTISSLQPEDFASYSCQQSYSTPPYTFGQGTKLEIKR |
| 90 | 1.4 | 169 | 2.44 | 0.000637 | 261000 | 18 | 160 | 1.68 | 0.00061 | 363000 | 19 | REGN7971 (antibody, human IgG4 S228P, kappa, V domains shown, fully human; human IgG4 Fc with hinge S108P; also called mAb37763) VH: QVQLVESGGGVVQPGRSLRLSCAASGFTFSTYGMHWVRQAPGKGLEWVAIISYDGSNDYYLDSVKGRFTISRDNSKNTLYLQMNNLRAEDTAVYYCAKDQGYGGNLFASWGQGTLVTVSS VL: not shown |
| 90 | 1.1 | 205 | 2.24 | 0.000935 | 418000 | 12 | 206 | 1 | 0.000634 | 632000 | 18 | REGN8023 (antibody, human IgG4 S228P, kappa, V domains shown, fully human; human IgG4 Fc with hinge S108P; also called mAb37699) VH: EVQLVESGGGLVKPGGSLRISCAASGFIFVDYAMHWVRQAPGKGLEWVSGISWNSGSIGYADSVKGRFTISRDNAKKSLYLQMSGLRPEDTALYYCVKSGFYYVRSYFDNWGQGTLVTVSS VL: DIVMTQSPLSLPVTPGEPASISCRSSQSLLDSDDGNTYLDWYLRKPGQSPQLLIYTLSYRASGVPDRFSGSGSGTDFTLKISRVEADDVGVYYCMQRIEFPLTFGGGTKVEIKR |
